Results taken from patent US11028167 (CENTIVAX, dated 2021).
Substitutions are numbered along the chain they refer to. Read-outs that look alike come from different tables or passages of the source.

B1: COVID19_R02_B08 (scFv, V domains shown)
VH: QVQLVQSGAEVKKPGASVKVSCKASGYTFTSYYIHWVRQAPGQGLEWMGIINPRGGSTSYAQKFQGRVTMTRDTSTSTVYMELSSLRSEDTAVYYCTREAKPQLLRTLDYWGQGTLVTVSS
VL: DIQMTQSPSSLSASVGDRVTITCRASQGIDTYLNWYQQKPGKAPKLLIYKASSLESGVPSRFSGSGSGTEFTLTINSLQPEDIATYYCQQYDNLPLTFGGGTKVEIKR
B2: COVID19_P06_C09 (scFv, V domains shown)
VH: B1 VH with Y33E, H35N, I50V, R54S, S57H, S59N, A100G, K101I, L105A, R106G
VL: DIQMTQSPSSLSASVGDRVTITCRASQSISGYLNWYQQKPGKAPKLLIYAASSLESGVPSRFSGSGSGTDFTLTISSLQPEDFATYYCQQGYTTPRTFGGGTKVEIKR
B3: COVID19_R02_C12 (scFv, V domains shown)
VH: QVQLVQSGAEVKKPGASVKVSCKASGYTFTSYDINWVRQAPGQGLEWMGMVDPNSGNTYYAQKFQGRFTMTRDTSTSTVYMELSSLRSEDTAVYYCTREGIPQLLGTLDYWGQGTLVTVSS
VL: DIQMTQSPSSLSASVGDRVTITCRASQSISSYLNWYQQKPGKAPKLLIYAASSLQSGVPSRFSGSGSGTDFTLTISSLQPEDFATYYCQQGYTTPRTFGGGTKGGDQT
B4: COVID19_P06_F03 (scFv, V domains shown)
VH: QVQLVQSGAEVKKPGASVKVSCKASGYTFTSYSMHWVRQAPGQGLEWMGAIYPGNSDTTYAQKFQGRVTMTRDTSTSTVYMELSSLRSEDTAVYYCTLDGIPQLLRTLDYWGQGTLVTVSS
VL: B2 VL with G31S, A50G, A51V, E55H, Q89L, G91Y, Y92V, T93S, T94Y, R96W

Key:
Experiment in all cases: SPR, scFv captured by anti-V5, RBD analyte
[1] = biological target: T1, SARS-CoV-2 Receptor Binding Domain (RBD) protein (SARS-CoV-2, UniProt P0DTC2 319-541)
[2] = biological target: SARS-CoV-1 Receptor Binding Domain (RBD) protein (SARS-CoV-1, UniProt P59594 306-527)
[3] = biological target: MERS Receptor Binding Domain (RBD) protein (Middle East Respiratory Syndrome (MERS) …, UniProt K9N5Q8 367-606)
[4] = biological target: T1, SARS-CoV-2 Receptor Binding Domain …; remark: listed apart in the source

Binder | Kd [1] [nM] | binding result [2] | binding result [3] | Kd [4] [nM] | koff [4] [s⁻¹] | kon [4] [M⁻¹ s⁻¹]
B1 | 166 | – | – | – | – | –
B2 | – | no binding (tested: 300 nM) | no binding (tested: 300 nM) | 2.47 | 0.00074 | 300000
B3 | – | no binding (tested: 300 nM) | no binding (tested: 300 nM) | 8.2 | 0.00059 | 72000
B4 | – | no binding (tested: 300 nM) | no binding (tested: 300 nM) | 32.6 | 0.00532 | 163000
